Results from the supplement of paper PMC10567573.

B1: KLHL14 (parent)
chain: CAVLDDSIYLVGGYSWSMGAYKSS

Variants of: B1
Assay: protein stability index of a GFP-peptide fusion (GPS, HEK-293T) (PSI 1-6); higher = more stable
Settings: c terminus: a fixed tail appended
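Further: lentivirally expressed fusions sorted by FACS into six bins by GFP to DsRed ratio, PSI derived from sequencing read proportions per bin multiplied by bin number.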

Protein stability index: each site, then its substitutions
L4: M 2.96; T 2.78; I 2.15; S 1.49; P 1.74; Y 2.19
I8: A 2.44; Y 2.96; D 2.22; Q 1.11; W 1.8; E 1.13; L 2.23; V 2.52
V11: C 1.91; W 1.7; F 1.6; M 3.05; G 1.93; Q 1.79; D 1.94; K 2.1
L10: C 3.76; G 2.23; A 1.55; K 2.05; E 1.33; D 1.94; F 3.26; S 1.83; N 1.98; P 1.1; H 1.59; R 2.45
K22: T 2.27; R 3.14; N 2.69; G 2.66; V 3.73; M 4.12; I 2.6
W16: Y 2.02; P 2.38; F 2.87; R 1.78; T 1.74; K 1.94; Q 1.8; H 1.79; D 2.14; N 1.89; A 1.78
Y9: S 1.51; T 2.18; M 3.37; E 2.28; K 1.36; L 3.26; I 1.86; G 1.28; A 1.66
G13: P 1.73; I 2.92; M 3.5; Q 2.49; Y 1.73
M18: Y 2.48; D 2.09; T 2.15; Q 2.67
A20: D 2.27; P 1.33; C 2.64; T 3.02; W 2.87; F 2.88; Q 3.05
S23: N 1.79; K 2.43; H 1.57; L 5.74; Q 2.73; C 2.2; D 1.96
D5: F 3.77; P 2.72; K 3.02; N 4.88
S7: H 2.24; Y 3.75; E 1.99; T 1.52; V 2.46; F 2.81; N 2.59; I 2.49; P 2.54; A 2.04
D6: K 1.35; M 4.25; Y 1.86; R 3.76
S24: A 4.41; D 1.06; E 2.32; Q 2.2; R 1.75
Y21: A 2.91; I 2.99; S 2; D 2.43; E 1.45; P 2.44; Q 2.35; H 2.64
C1: T 1.43; R 2.03; L 2.09; N 1.74; A 1.72; Q 1.73; F 3.37; Y 1.82; H 1.74
G19: V 1.97; Y 3.83; L 3.64; K 2.23; W 3.29; T 2.01; A 2.33; S 2.83; E 1.22; F 3.41
A2: L 2.18; K 2.85; E 2.37; P 1.61; Y 2.32
S17: H 1.98; Y 2.9; N 1.53; M 1.49; E 2.25; W 3.53; D 1.52; G 2.69; I 1.92
S15: N 2.28; F 2.58; I 2.56; H 1.65; Q 2.44
G12: R 2.52; N 3.82; C 3.07
Y14: Q 2.03; K 1.73; G 1.2; W 2.93; H 1.83; D 2.23
V3: S 2.3; R 2.4; I 2.56; A 2.03; Q 2.39
